Changes are numbered by the printed parent chain.
What was measured:
Test in all cases: fluorescence polarisation; IQGAP1 variant titrated to mGppNHp-bound RHO protein (1 μM); equilibrium Kd (eKd), quadratic fit; 30 mM Tris/HCl pH 7.5, 150 mM NaCl, 5 mM MgCl2, 3 mM DTT, 25 °C
Settings in all cases: both partners purified
[1] = biological target: T1, IQGAP1 GRD1-CT (aa 863-1657) (human, UniProt P46940 863-1657)
T1 construct: human IQGAP1, GRD, RGCT and CT domains, aa 863-1657; The GST tag was cleaved 'if needed'; also called C-terminal half of IQGAP1; C-terminal 795 amino acids of IQGAP1
T1 sequence (looked up): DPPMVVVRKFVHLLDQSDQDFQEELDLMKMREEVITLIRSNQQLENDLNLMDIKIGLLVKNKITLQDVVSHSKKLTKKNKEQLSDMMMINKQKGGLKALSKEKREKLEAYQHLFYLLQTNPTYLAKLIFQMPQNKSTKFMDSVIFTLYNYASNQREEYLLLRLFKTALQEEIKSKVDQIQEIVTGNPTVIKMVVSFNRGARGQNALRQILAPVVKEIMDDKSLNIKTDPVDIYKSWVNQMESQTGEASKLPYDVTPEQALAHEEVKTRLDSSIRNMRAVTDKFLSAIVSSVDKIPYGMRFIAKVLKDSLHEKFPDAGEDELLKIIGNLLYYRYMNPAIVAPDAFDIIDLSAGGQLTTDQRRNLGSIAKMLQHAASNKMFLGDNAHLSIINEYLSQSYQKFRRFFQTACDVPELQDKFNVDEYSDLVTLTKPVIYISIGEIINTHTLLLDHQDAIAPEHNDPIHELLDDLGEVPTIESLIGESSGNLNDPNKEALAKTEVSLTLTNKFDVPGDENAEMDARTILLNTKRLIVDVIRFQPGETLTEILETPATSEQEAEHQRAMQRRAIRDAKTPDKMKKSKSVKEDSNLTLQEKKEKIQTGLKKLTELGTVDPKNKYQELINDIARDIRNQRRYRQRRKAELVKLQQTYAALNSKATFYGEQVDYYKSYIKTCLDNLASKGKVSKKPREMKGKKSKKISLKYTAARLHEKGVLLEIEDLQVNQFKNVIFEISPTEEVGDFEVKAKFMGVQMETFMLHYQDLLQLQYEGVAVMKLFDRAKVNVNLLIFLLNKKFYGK

[2] = biological target: T2, IQGAP1 GRD1-RGCT S1443E (aa 877-1558) (human, UniProt P46940 877-1558, S1443E)
T2 construct: human IQGAP1 aa 877-1558 with the phosphomimetic mutation S1443E (printed as S1143E in the methods, S1443E everywhere else), from the vector pET46 EkLIC; source: E. coli (pLysS BL21(DE3), CodonPlusRIL or BL21(Rosetta)), purified (Ni-NTA, gel filtration)
T2 sequence (looked up): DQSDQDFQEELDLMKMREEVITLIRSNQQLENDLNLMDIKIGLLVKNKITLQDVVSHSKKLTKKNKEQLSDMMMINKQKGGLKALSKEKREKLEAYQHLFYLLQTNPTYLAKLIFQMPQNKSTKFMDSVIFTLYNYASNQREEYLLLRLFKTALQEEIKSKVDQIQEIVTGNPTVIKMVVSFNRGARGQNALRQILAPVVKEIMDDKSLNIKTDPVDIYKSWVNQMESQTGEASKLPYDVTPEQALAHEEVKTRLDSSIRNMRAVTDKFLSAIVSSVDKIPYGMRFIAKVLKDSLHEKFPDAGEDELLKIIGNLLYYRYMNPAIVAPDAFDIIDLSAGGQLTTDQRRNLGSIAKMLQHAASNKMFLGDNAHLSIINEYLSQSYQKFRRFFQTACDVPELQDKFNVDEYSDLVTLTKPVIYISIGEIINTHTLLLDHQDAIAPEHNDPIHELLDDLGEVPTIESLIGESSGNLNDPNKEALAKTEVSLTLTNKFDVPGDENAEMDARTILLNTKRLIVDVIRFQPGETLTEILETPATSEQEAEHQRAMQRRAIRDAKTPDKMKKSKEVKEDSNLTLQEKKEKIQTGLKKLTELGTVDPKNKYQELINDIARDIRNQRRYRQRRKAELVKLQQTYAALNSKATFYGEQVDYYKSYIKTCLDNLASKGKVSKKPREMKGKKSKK

[3] = biological target: T3, IQGAP1 GRD1-RGCT wild type (aa 877-1558) (human, UniProt P46940 877-1558)
T3 construct: human IQGAP1, GRD and RGCT domains, lacks the last 99 amino acids, aa 877-1558; also called GRD1-RGCT^WT; IQGAP1^877-1558
T3 sequence (looked up): T2 sequence (looked up) with E567S

B1: CDC42 (aa 1-178) (domain or fragment)
chain: not shown
notes: human CDC42, C-terminally truncated, aa 1-178; Loaded non-covalently with mGppNHp, tGppNHp, mGDP or non-fluorescent GppNHp; the nucleotide is named in the format of each assay; also called CDC42^WT; CDC42-mGppNHp
Question: Which Kd [1] does the source give for B1 here?
Answer: Its Kd is 3.4 µM.

Question: What about the Kd [2] of the same binder?
Answer: The Kd was 16.3 µM.

Question: What about the Kd [3] of the same binder?
Answer: Its Kd is 4.6 µM.

From publication PMC5159498, “IQGAP1 Interaction with RHO Family Proteins Revisited” (The Journal of Biological Chemistry, 2016)
